Test results reported in patent publication US20200131263A1 (JIANGSU HENGRUI MEDICINE, published 2020).

T1: mouse GITR (mouse, UniProt O35714 20-153, limits assumed)
T1 sequence (looked up): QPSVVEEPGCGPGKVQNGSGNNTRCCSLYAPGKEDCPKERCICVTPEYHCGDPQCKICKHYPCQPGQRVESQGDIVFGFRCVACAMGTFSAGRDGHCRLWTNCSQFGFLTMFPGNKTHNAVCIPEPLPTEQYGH

T2: human GITR with mFc tag (huGITR-mFc) (human)
T2 chain: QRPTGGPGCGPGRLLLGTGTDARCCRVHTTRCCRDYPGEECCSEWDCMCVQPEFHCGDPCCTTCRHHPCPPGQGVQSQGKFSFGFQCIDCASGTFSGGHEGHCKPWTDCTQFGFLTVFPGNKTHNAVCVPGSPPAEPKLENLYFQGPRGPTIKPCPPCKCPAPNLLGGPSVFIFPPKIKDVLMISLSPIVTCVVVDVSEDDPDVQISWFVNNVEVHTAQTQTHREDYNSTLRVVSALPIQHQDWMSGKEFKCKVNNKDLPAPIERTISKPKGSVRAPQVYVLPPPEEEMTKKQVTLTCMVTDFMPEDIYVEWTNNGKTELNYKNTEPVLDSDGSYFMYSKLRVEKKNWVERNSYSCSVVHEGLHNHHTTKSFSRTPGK

T3: human h-GITR-his antigen (Sino Biological, Cat. #13643-H08H) (human, UniProt Q9Y5U5 26-161)
T3 construct: Bought protein; also called GITR antigen; not shown: His tag
T3 sequence (looked up): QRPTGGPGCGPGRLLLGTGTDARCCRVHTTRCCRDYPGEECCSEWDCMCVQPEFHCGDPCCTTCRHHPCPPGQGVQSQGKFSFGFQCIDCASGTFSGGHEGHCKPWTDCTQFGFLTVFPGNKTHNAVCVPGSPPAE

B1: mouse monoclonal antibody 8A11 (antibody, V domains shown)
VH: EVKLVESGGGLVKPGGSLKLSCAASGFTFSSYAMSWVRQTPEKRLEWVAYISSGGSTYYPDSVKGRFTISRENARNILYLQMSSLRSEDTAMYYCAREGYGTYGDYWGQGTTLTVSS
VL: DIVMSQSPSSLAVSVGEKVTMSCKSSQSLLYSTNQKNYLAWYQQKPGQSPKLLIYWASTRESGVPDRFTGSGSGTDFTLTISSVKAEDLAVYYCQQYYSYLRTFGGGTKLEIK
notes: Mouse antibody from a hybridoma
B2: mouse monoclonal antibody 18F10 (antibody, V domains shown)
VH: QVQLQQSGAELVRPGVSVKISCKCSGYTFTGYDLHWVKQSHAKSLDWIGVISTYYGDANYNQKFKGKATMTVDKSSSTAYMELARLTSEDSAIYYCTRLAESYFFDYWGQGTTLTVSS
VL: QILLTQSPAIMSASPGEKVTMTCRASSSVSYIHWYQQKPGSSPKPWIYDTSDLASGFPARFSGTGSGTSYSLIISSMEAEDAATYYCHQRSSYPFTFGSGTKLEIK
notes: as for B1
B3: mouse monoclonal antibody 16G9 (antibody, V domains shown)
VH: QVQLQQSGAELAKPGASVKMSCKASGYTFTTYWIHWIKQRPGQGLEWIGYINPSTGYTDYNQNFKDKATLTADQYSSTAYMQLSSLTFEDSAVYYCANYYGSTPYYWGRGTTLTVSS
VL: QIVLTQSPAIMSASPGEKVTMTCSASSSVTYVHWYQQKSGASPERWIFDASKLASGVPARFSGSGSGTSYSLTISSMETEDAATYYCQQWSSNPLTFGAGTKLELK
notes: as for B1
B4: reference antibody BMAB (Merck's MK-4166 antibody) (antibody, V domains shown)
VH: QVQLQQSGAEVKKPGSSVRVSCKASGGTFNNNAINWVRQAPGQGLEWMGGIIPMFGTAKYSQNFQGRVAITADESTGTASMELSSLRSEDTAVYYCARSRDLLLFPHHALSPWGRGTMVTVSS
VL: SSELTQDPAVSVALGQTVRVTCQGDSLRSYYASWYQQKPGQAPVLVIYGKNNRPSGIPDRFSGSSSGNTASLTITGAQAEDEADYYCSSRDSSGNHWVFGGGTELTVLG
B5: mouse monoclonal antibody 7D9 (antibody, V domains shown)
VH: DVQLQESGPGLVKPSQSLSLTCTVTGYSITSDYAWNWIRQFPGNKLEWLGYISYSGSTYYNPSLKSRISLTRDTSKNQFFLQLNSVTSEDTATYYCARWDYRYDGRGFDYWGQGTTLTVSS
VL: DIQMTQSPSSLSASLGERVSLTCRASQDIGSGLNWLQQEPDGTIKRLIYATSSLDSGVPKRFSGSRSGSDYSLTISSLESEDFVDYNCLQYTSTPWTFGGGTKLEIK
notes: as for B1
B6: humanized anti-GITR antibody hu18F10 (antibody, human IgG1, kappa, V domains shown)
VH: QVQLVQSGAEVVKPGASVKVSCKASGYTFTGYDLHWVRQAPGQGLEWIGVISTYYGDANYNQKFQGRVTMTVDTSSSTAYMELSRLRSEDTAVYYCTRLAESYFFDYWGQGTTLTVSS
VL: EIVLTQSPATLSASPGERVTLTCRASSSVSYLHWYQQKPGQAPKPWIYDTSNLASGFPARFSGDGSGTDYTLTISSLEAEDAAVYYCHQRSSYPFTFGSGTKLEIKR
B7: humanized anti-GITR antibody hu8A11 (antibody, human IgG1, kappa, V domains shown)
VH: EVQLVESGGGLVQPGGSLRLSCAASGFTFSSYAMSWVRQAPGKGLEWVAYISSGGSTYYPDSVKGRFTISRDNAKNSLYLQMNSLRAEDTAVYYCAREGYGTYGDYWGQGTTLTVSS
VL: DIVMTQSPSSLAVSVGERVTISCKSSQSLLYSTNQKNYLAWYQQKPGQSPKLLIYWASTRESGVPDRFSGSGSGTDFTLTISSLQAEDVAVYYCQQYYSYLRTFGGGTKLEIKR
notes: also called h8A11

biological target: T1, mouse GITR; experiment: ELISA, mouse GITR coated at 1 ug/ml
Description: (§1) The GITR proteins from different species (mouse/cyno GITR) were diluted to 1 μg/ml with PBS buffer pH 9.5, and 50 μl/well was added to a 96-well microplate, which was incubated overnight (16-18 hours) at 4° C. The buffer in the plate was discarded prior to adding 300 μl/well of 1% BSA blocking buffer diluted with PBS, and the plate was incubated for blocking for 2.5h at 37° C. in an incubator. After blocking, the blocking buffer was discarded, and the plate was washed three times with PBST buffer (pH 7.4 PBS containing 0.05% tween-20). 50 μl/well antibodies to be tested were added to the plate, wherein the antibodies were diluted to different concentrations with sample diluent (pH7.4 PBS), and the plate was incubated at 37° C. in an incubator for 30 minutes. After incubation, the reaction buffer in the microplate was discarded prior to washing the plate with PBST three times, and 50 μL/well of Peroxidase AffiniPure Goat Anti-Human secondary antibody (JacksonImmunoResearch, 109-035-088) which was diluted with sample diluent was added, and the plate was incubated at 37° C. for 1 hour. […] The absorption value at 450 nm was read by a MD plus 384 microplate reader.

| binding result | Binder |
| --- | --- |
| no binding | B1 |
| no binding | B2 |

Biological target: T2, human GITR with mFc tag (huGITR-mFc)
Experiment: ELISA, huGITR-mFc coated at 1 ug/ml
Description: The huGITR-mFc was diluted to 1 μg/ml with CBS buffer pH 9.5, added to the 96-well microplate at 50 μl/well, and incubated overnight at 4° C. The supernatant was discarded prior to 300 μl/well of 1% BSA blocking buffer diluted with PBS to the wells, and the plate was incubated for 2.5h at 37° C. in an incubator for blocking. After blocking, the blocking buffer was discarded, and the plate was washed three times with PBST buffer (pH 7.4 PBS containing 0.05% tween-20). 50 μl/well of the antibodies to be tested were added, with the antibodies being diluted to different concentrations with sample diluent, and the plate was incubated at 37° C. in an incubator for 30 minutes. The plate was then washed with PBST three times, and 50 μL/well of Peroxidase AffiniPure Goat Anti-Human secondary antibody (Jackson immune research, 115-035-088) diluted with sample diluent was added, followed by incubating at 37° C. for 30 minutes. After washing the plate with PBST three times, 50 μl/well of TMB chromogenic substrate was added and the plate was incubated at room temperature for 5 minutes prior to adding 50 μl/well of 1M […] to terminate the reaction. The absorption value at 450 nm was read by a MD plus 384 microplate reader. The data were analyzed with SoftMax Pro6.2.1 to obtain binding EC50 values of the anti-GITR antibodies to GITR, as shown in Table 1.

| EC50 | Binder |
| --- | --- |
| 75 pM | B3 |
| 77 pM | B1 |
| 103 pM | B2 |
| 74 pM | B4 |
| 55 pM | B5 |

biological target: cynomolgus GITR (cyno-GITR) (cynomolgus); experiment: ELISA, cyno GITR coated at 1 ug/ml
Description: as §1

| EC50 | Binder |
| --- | --- |
| 5210 pM | B1 |
| 744 pM | B2 |

Biological target: T2, human GITR with mFc tag (huGITR-mFc)
Experiment: ELISA, blocking of GITRL-His binding to coated GITR-Fc
Description: huGITR-mFc was diluted to 2 μg/ml with CBS buffer pH 9.5, added to the 96-well microplate at a volume of 50 μl/well, and incubated overnight at 4° C. The supernatant was discarded prior to adding 300 μl/well of 1% BSA blocking buffer diluted with PBS, and the plate was incubated for blocking for 2.5h at 37° C. in an incubator. After blocking, the blocking buffer was discarded, and the plate was washed three times with PBST buffer (pH 7.4 PBS containing 0.05% tween-20) prior to adding antibodies for pre-incubation, wherein the antibodies were diluted into gradient concentrations with sample diluent. 0.15 μg/ml of GITRL-His protein in a volume of 50 μl/well was added, mixed and incubated at 37° C. in an incubator for 30 minutes. The reaction buffer was then discarded, the plate was washed with PBST three times, and 50 μL/well of Peroxidase AffiniPure Goat Anti-Human secondary antibody diluted with sample diluent at a ratio of 1:4000 was added, then the place was incubated at 37° C. for 30 minutes. After washing the plate with PBST three times, 50 μl/well of TMB chromogenic substrate was added and the plate was incubated at room temperature for 5 minutes prior to adding 50 μl of 2M H₂SO₄ to terminate the reaction. The absorption value at 450 nm was read by a MD plus 384 microplate reader. The EC50 values of GITR antibodies binding to GITR were obtained by analyzing the data with SoftMax Pro6.2.1, as shown in Table 1.

| IC50 | Binder |
| --- | --- |
| 10300 pM | B3 |
| 7570 pM | B1 |
| 6040 pM | B2 |
| 1390 pM | B4 |
| 3890 pM | B5 |

biological target: T3, human h-GITR-his antigen (Sino …); experiment: SPR (Biacore T200), antibody captured on Protein A chip, h-GITR-his as analyte, 1:1 Langmuir fit
Description: The affinities of humanized anti-GITR antibodies to be tested and human GITR were measured by Biacore, GE instruments.
A Protein A biosensor chip (Cat. 29-1275-56, GE) for a Biacore Instrument (Biacore T200, GE) was used to affinity-capture a certain amount of antibodies to be tested, and then a series of concentration gradients of GITR antigen (human h-GITR-his antigen was selected from Sino Biological Company (Cat. #13643-H08H)) were flowed through the surface of the chip. Real-time reaction signals were detected by a Biacore Instrument (Biacore T200, GE), thus obtaining the binding and dissociation curves. The biochip was rinsed and regenerated with 10 mM glycine pH 1.5 after each dissociation cycle, and the buffer was PBST, pH7.4. The experimental data were fitted with (1:1) Langmuir model using Biacore T200 Evaluation 2.0, GE software, and the affinity values were obtained, as shown in Table 2.

| Kd | koff | kon | Binder |
| --- | --- | --- | --- |
| 185 pM | – | – | B4 |
| 330 pM | 0.000204 s⁻¹ | 613000 M⁻¹ s⁻¹ | B6 |
| 620 pM | 0.000104 s⁻¹ | 168000 M⁻¹ s⁻¹ | B7 |
